Biological target: SpCas9::KQ (nuclease-deficient) KQ insertion (Streptococcus pyogenes) (UniProt Q99ZW2)
Test: cell_activity
Conditions: PAM TGG; half the fraction of GFP-positive cells of SpCas9

Chain of UniProt Q99ZW2 (Q99ZW2 whole entry): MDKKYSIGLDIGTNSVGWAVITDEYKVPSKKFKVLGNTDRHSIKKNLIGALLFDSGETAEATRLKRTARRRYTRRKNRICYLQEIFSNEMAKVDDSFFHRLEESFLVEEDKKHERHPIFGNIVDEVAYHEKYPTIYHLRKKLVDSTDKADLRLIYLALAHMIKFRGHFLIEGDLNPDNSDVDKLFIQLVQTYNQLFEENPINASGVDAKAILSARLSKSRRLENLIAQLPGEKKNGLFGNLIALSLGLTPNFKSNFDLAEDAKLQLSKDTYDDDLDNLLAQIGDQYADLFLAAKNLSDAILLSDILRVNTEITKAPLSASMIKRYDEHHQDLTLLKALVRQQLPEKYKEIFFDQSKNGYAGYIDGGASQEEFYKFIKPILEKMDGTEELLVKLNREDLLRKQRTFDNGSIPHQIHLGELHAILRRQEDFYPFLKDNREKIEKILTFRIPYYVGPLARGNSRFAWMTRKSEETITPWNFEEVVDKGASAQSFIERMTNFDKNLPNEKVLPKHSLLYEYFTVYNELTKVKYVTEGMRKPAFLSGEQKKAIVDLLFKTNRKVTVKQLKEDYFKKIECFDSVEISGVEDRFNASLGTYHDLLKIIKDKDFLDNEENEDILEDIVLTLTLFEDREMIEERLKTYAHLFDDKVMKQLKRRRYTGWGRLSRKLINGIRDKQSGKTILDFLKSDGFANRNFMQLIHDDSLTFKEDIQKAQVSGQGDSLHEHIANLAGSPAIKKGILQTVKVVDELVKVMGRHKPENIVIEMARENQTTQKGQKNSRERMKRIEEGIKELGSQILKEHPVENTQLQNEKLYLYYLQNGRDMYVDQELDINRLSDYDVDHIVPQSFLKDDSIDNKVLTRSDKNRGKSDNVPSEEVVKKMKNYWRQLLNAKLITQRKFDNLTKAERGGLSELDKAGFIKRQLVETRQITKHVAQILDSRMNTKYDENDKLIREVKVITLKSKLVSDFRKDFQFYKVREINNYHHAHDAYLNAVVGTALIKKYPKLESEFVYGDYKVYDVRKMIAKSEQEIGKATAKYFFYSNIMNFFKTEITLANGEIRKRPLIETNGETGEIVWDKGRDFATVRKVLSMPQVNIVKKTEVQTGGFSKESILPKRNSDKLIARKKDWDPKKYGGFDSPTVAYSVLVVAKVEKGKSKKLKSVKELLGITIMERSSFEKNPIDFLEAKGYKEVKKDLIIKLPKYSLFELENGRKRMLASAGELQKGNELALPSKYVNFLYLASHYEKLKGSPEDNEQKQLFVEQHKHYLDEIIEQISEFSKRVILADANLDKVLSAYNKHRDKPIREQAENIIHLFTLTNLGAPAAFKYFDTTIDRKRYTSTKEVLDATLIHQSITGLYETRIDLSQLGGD

CGAAAGGUUUUGCACUCGAC / CGAAAGGTTTTGCACTCGACTGG / CCAGTCGAGTGCAAAACCTTTCG
binding signal (fraction of SpCas9 GFP-positive cells): 0.5

— patent publication US20190218532
